Source: publication PMC12650658, “Evaluating the Topological Features of Monomeric and Trimeric TRAF2-C: A Multi-Disciplinary Approach” (Biomolecules, 2025)

Target: the molecule itself
Test: dynamic light scattering; TRAF2-C ≈ 4 µM (in monomers), 20 °C, filtered 0.22 µm; bimodal Gaussian fit of the size distribution (monomers, trimers)

B1: C-terminal domain of human TRAF2 (TRAF2-C, residues 310-501) (domain or fragment, UniProt Q12933 310-501, looked up)
chain: DQDKIEALSSKVQQLERSIGLKDLAMADLEQKVLEMEASTYDGVFIWKISDFARKRQEAVAGRIPAIFSPAFYTSRYGYKMCLRIYLNGDGTGRGTHLSLFFVVMKGPNDALLRWPFNQKVTLMLLDQNNREHVIDAFRPDVTSSSFQRPVNDMNIASGCPLFCPVSKMEAKNSYVRDDAIFIKAIVDLTGL
notes: TNF receptor-associated factor 2 (TRAF2), human, C-terminal domain, residues 310-501; Unlabelled protein used for DLS, CD and SANS; Only a pET-based vector is named; the tag is inferred from the Ni-NTA step; also called TRAF2 C-terminal domain; source: E. coli BL21 (DE3), purified (Ni-NTA, Superdex 75 SEC)
stoichiometry N: 3
